Source: patent publication US20140223606, “COMPOSITIONS AND METHODS COMPRISING SEQUENCES HAVING MEGANUCLEASE ACTIVITY” (PIONEER HI BRED INTERNATIONAL INC, published 2014)

T1: LIG3-4(B82) (artificial)
T1 chain: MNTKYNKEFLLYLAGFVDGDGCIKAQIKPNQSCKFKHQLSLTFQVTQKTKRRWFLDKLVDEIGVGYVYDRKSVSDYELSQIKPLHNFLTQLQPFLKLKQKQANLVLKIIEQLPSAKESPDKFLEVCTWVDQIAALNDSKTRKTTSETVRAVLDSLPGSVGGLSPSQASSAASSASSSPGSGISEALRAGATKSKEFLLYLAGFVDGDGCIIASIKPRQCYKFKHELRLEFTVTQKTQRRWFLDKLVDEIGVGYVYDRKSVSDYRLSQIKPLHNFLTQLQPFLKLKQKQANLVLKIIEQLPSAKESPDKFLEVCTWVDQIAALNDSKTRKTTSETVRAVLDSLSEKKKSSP

T2: LIG3-4(B76) (artificial)
T2 chain: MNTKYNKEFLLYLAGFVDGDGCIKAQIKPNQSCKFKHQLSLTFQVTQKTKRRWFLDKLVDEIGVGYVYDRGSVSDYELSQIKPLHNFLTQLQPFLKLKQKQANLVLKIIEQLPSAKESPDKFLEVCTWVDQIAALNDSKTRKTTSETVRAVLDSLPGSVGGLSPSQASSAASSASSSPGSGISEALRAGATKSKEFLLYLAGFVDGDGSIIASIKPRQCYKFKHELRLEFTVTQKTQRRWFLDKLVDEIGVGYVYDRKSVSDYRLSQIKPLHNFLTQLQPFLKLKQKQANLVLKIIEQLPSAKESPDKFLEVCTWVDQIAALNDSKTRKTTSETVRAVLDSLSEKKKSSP

T3: LIG3-4(B75) (artificial)
T3 chain: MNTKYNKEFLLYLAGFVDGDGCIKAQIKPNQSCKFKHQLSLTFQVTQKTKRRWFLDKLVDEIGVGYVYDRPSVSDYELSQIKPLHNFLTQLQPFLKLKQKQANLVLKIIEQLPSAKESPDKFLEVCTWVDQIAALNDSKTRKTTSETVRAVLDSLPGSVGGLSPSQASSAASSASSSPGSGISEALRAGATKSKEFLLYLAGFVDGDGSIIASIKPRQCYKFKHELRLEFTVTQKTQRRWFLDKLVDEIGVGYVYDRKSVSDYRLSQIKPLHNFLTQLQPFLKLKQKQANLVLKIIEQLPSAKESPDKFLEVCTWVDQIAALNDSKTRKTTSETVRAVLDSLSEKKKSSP

T4: ZM6.3(3) (artificial)
T4 chain: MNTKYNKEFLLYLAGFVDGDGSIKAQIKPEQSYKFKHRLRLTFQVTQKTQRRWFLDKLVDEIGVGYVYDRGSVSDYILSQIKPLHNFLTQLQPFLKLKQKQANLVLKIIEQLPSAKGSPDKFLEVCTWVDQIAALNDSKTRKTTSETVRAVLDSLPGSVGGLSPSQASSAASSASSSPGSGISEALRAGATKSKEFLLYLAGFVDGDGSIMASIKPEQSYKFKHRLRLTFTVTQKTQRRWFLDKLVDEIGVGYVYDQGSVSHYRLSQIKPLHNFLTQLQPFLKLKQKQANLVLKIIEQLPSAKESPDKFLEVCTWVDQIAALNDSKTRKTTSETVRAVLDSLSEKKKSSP

T5: ZM6.3 (artificial)
T5 chain: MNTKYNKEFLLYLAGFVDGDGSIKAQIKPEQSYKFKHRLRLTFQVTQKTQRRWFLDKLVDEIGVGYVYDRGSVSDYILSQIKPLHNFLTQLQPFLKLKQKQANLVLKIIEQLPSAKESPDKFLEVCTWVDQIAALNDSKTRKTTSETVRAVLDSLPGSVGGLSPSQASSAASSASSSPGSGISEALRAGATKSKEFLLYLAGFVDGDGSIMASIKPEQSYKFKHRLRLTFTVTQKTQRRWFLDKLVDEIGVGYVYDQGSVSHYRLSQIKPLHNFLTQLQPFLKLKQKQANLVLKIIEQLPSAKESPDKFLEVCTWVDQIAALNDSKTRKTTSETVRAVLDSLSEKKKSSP


Columns and labels:
Conditions in all cases: tags: NLS, 6xHis
LIG3-4(B82) = molecular target: T1, LIG3-4(B82); experiment: cell_activity; yeast 30 C; 22 C: 4
Procedure: (§1) A 3 mL culture of selective media (MP Biomedical) was inoculated with a single colony of the yeast screening strain and grown at 30° C. overnight. On the following day, a 50 ml YPD culture (MP Biomedical) was started with 2 ml of the overnight culture and grown at 30° C. overnight. On the following day, the cells were harvested by centrifugation at 4000 rpm. The cells were resuspended in 100 ml ice cold water and centrifuged again. The cells were then washed in 1.2 M sorbitol, followed by treatment with 2 ml of 10 mM Tris pH 8.0, 1 mM EDTA, 100 mM Lithium acetate, 10 mM DTT, 0.6M sorbitol for 30 minutes at 30° C. with shaking. The cells were recovered by centrifugation, washed in 40 ml 1.2M sorbitol and finally resuspended in 250 microliters of 1.2M sorbitol. 50 microliter aliquots were transferred to test tubes on ice. Up to 5 microliters of DNA (100-500 nanograms) were added. The suspension was transferred to a 0.2 cm electroporation cuvette, on ice. Electroporation was performed with a pulse charge at 1.5 kV, 200 ohms, 25 microF (pulse time of 5 milliseconds). 1 mL YPD media (MP Biomedical) was added and the cells were allowed to recover at 30° C. for 1-2 hr. The cells were centrifuged, resuspended in 100 uL 1M sorbitol and plated on selective media lacking leucine and containing 2% galactose. The resulting yeast colonies were incubated at various temperatures ranging from 22 to 37 degrees Celsius for 7-10 days. I-CreI and meganucleases derived from it have maximal activity at or above 37 degrees Celsius. Screening was performed at a range of temperatures from 22 to 37 degrees in order to observe increases in activity at lower temperatures which are relevant to certain biological systems (eg. plant cells, plant cell cultures, etc). At that time the red/white sectoring phenotype, indicative of meganuclease activity was observed. Colonies with increased white sectoring over the parental meganuclease (indicating colonies expressing a meganuclease with increased meganuclease activity), also referred to as “hits” and sometimes completely white, were isolated for further analysis.

LIG3-4(B76) = molecular target: T2, LIG3-4(B76); experiment: cell_activity; yeast 30 C; 22 C: 4
Procedure: as §1

LIG3-4(B75) = molecular target: T3, LIG3-4(B75); experiment: cell_activity; yeast 30 C; 22 C: 4
Procedure: as §1

ZM6.3(3) = molecular target: T4, ZM6.3(3); experiment: cell_activity; yeast 37 C; 28 C: 0
Procedure: (§2) A 3 mL culture of selective media (MP Biomedical) was inoculated with a single colony of the yeast screening strain and grown at 30° C. overnight. On the following day, a 50 ml YPD culture (MP Biomedical) was started with 2 ml of the overnight culture and grown at 30° C. overnight. On the following day, the cells were harvested by centrifugation at 4000 rpm. The cells were resuspended in 100 ml ice cold water and centrifuged again. The cells were then washed in 1.2 M sorbitol, followed by treatment with 2 ml of 10 mM Tris pH 8.0, 1 mM EDTA, 100 mM Lithium acetate, 10 mM DTT, 0.6M sorbitol for 30 minutes at 30° C. with shaking. The cells were recovered by centrifugation, washed in 40 ml 1.2M sorbitol and finally resuspended in 250 microliters of 1.2M sorbitol. 50 microliter aliquots were transferred to test tubes on ice. Up to 5 microliters of DNA (100-500 nanograms) were added. The suspension was transferred to a 0.2 cm electroporation cuvette, on ice. Electroporation was performed with a pulse charge at 1.5 kV, 200 ohms, 25 microF (pulse time of 5 milliseconds). 1 mL YPD media (MP Biomedical) was added and the cells were allowed to recover at 30° C. for 1-2 hr. The cells were centrifuged, resuspended in 100 uL 1M sorbitol and plated on selective media lacking leucine and containing 2% galactose. The resulting yeast colonies were incubated at various temperatures ranging from 22 to 37 degrees Celsius for 7-10 days. I-CreI and meganucleases derived from it have maximal activity at or above 37 degrees Celsius. Screening was performed at a range of temperatures from 22 to 37 degrees in order to observe increases in activity at lower temperatures which are relevant to certain biological systems (eg. plant cells, plant cell cultures, etc). At that time the red/white sectoring phenotype, indicative of meganuclease activity was observed. Colonies with increased white sectoring over the parental meganuclease (indicating colonies expressing a meganuclease with increased meganuclease activity), also referred to as “hits” and sometimes completely white, were isolated for further analysis. […]

ZM6.3 = molecular target: T5, ZM6.3; experiment: cell_activity; yeast 37 C; 28 C: 0
Procedure: as §2

| Binder | activity (LIG3-4(B82)) | activity (LIG3-4(B76)) | activity (LIG3-4(B75)) | activity (ZM6.3(3)) | activity (ZM6.3) |
| --- | --- | --- | --- | --- | --- |
| LIG3-4 recognition site (dsDNA) DNA 1: ATATACCTCACACGTACGCGTA DNA 2: TACGCGTACGTGTGAGGTATAT | 4 score 0-4 | 4 score 0-4 | 4 score 0-4 | – | – |
| ZM6.3 recognition site (dsDNA) DNA 1: CAGGCTCTCGTAAATGCGCCTG DNA 2: CAGGCGCATTTACGAGAGCCTG | – | – | – | 2 score 0-4 | 2 score 0-4 |
